In patent US12616648B2, “Cosmetic composition” (GIVAUDAN SA, priority 2018, dated 2026):

Test system: Normal Human Keratinocytes (NHEKs)
Experiment: NHEK scratch assay (wound healing)
Assay type: cell-based
Conditions: HB-EGF 1 ng/ml (positive control), overnight pre-incubation, 8 h after scratch
Protocol: Normal Human Keratinocytes (NHEKs) were seeded at 200′000 cells per well pre-coated with Type I collagen in 12-wells culture plates in the presence of keratinocyte growth medium (KGM, Lonza) supplemented with growth factors such as hydrocortisone, transferrin, epinephrine, bovine pituitary extract (BPE), recombinant human epidermal growth factor (rhEGF) and insulin. At confluence, cells were pre-incubated with the Patchouli stem extract of Example 1 at a concentration of 0.5% (v/v) or heparin-binding epidermal growth factor (HB-EGF) at 1 ng/ml (positive control) overnight in keratinocyte basal medium without supplement. After this pre-conditioning phase, the cell monolayer sticking to the bottom of the well was scratched with a P200 sterile cone, followed by two washes with phosphate buffered saline (PBS). The NHEK were then again stimulated with Patchouli extract at 0.5% or HB-EGF at 1 ng/ml for 8 h in basal medium.
The wound healing process was analyzed by pictures recording at T0 and T8h using inverting optical microscope (Zeiss). After image analysis, the percentage of scratch closing was determined relative to untreated condition.

B1: HB-EGF: heparin-binding epidermal growth factor, positive control in the scratch assay (protein, UniProt Q99075 63-148, looked up)
Heparin-binding EGF-like …: DLQEADLDLLRVTLSSKPQALATPNKEEHGKRKKKGKGLGKKRDPCLRKYKDFCIHGECKYVKELRAPSCICHPGYHGERCHGLSL
wound healing (scratch closing relative to untreated condition): about +60%
